Assay results from patent publication US20110250202A1.

B1: 3B12 antibody (antibody, V domains shown)
VH: EVQLQQSGAEFVKPGASVKLSCRVSGFNIKDYYINWVKQRTEQGLEWIGRIDPEDGETKYAPKFQGKATITADTSSNTANLHLSSLTSADTAVYYCASSGYAFAWFLYWGQGTLVTVSA
VL: DILLTQSPAILSVSPGERVSFSCRASQSIGTSIHWYQQRTNGSPRLLIKYASESISGIPSRFSGSGSGTDFTLSINSVESEDIADYYCQQSNRWPFTFGSGTKLEIKR
B2: 2B2 antibody (antibody, V domains shown)
VH: VQLQQSGAEFVKRPGASVKLSCRVSGFNIKDYYINWVKQRTEQGLEWIGRIDPEDGETKYAPKFQGKATITADTSSNTANLHLSSLTSADTAVYYCASSGYAFAWFLYWGQGTLVTVSA
VL: B1 VL
B3: 2G7 antibody (antibody, V domains shown)
VH: EVQLQQSGAELVKPGASVKLSCTASGFNIKDYFIHWVNQRTKQGLEWIGRIDPEDGETKYAPKFQGKATLTADTTSNTADLQLSSLTSEDTAVYYCVLYYSRSFDYWGQGTTLTVSS
VL: QNVLTQSPAIMSASPGEKVTMTCSASSSVSYMHWYQQKSGTSPKRWIYDTSKLASGVPARFSGSGSGTSYSLTISSMEAEDAATYYCQQWSSNPLTFGAGTKLELKR

Tests used:
[1] = target: recombinant penicillin binding protein 2a (PBP2a) (Staphylococcus aureus); assay: SPR (BIACORE), rPBP2a coupled on CM5 chip, antibody flowed at 0 to 5 nM; purified antibody
[2] = target: recombinant penicillin binding protein 2a (PBP2a) (Staphylococcus aureus); assay: SPR (BIACORE), rPBP2a coupled on CM5 chip, antibody flowed at 0 to 5 nM; culture supernatant 2
[3] = target: recombinant penicillin binding protein 2a (PBP2a) (Staphylococcus aureus); assay: SPR (BIACORE), rPBP2a coupled on CM5 chip, antibody flowed at 0 to 5 nM; culture supernatant 1

Binder	Kd [1]	Kd [2]	Kd [3]
B1	176 pM	6050 pM	4850 pM
B2	359 pM	2150 pM	–
B3	1.18 pM	0.0022 pM	0.204 pM
